Assay [1] addresses T1, Recombinant mouse FcγRIII [CD16], Ala31-Thr215 with C-terminal 10-His tag (mouse, UniProt P08508 31-215).
T1 construct: Soluble form bought from R&D Systems; also called m-FcγRIII
T1 sequence: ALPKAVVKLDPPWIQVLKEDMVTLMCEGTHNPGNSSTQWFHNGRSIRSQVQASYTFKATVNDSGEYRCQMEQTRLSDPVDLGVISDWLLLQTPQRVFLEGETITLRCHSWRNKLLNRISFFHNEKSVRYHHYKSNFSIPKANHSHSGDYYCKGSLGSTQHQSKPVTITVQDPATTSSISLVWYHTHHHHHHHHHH
The assay is described as follows: SPR (Biacore X): m-FcγRIII injected over c515H7 Mab immobilized on a CM4 sensorchip; Langmuir model. On the procedure:
(§1) 2017 RU of c515H7 Mab were immobilized using the amine coupling kit chemistry on the second flowcell (FC2) of a CM4 sensorchip. The first flowcell (FC1) activated by NHS and EDC mixture and des-activated by ethanolamine served as the reference surface to check and subtract the non specific interaction between the analyte (Fc gamma receptors) and the sensorchip matrix.
(§2) The kinetic experiments were carried out at 25° Celsius at a flow rate of 30 μl/min. The HBS-EP buffer was used either as the running buffer or for the preparation of analyte solutions. The analyte solutions were injected during 90 seconds (association phase) with a 90 seconds delay (dissociation phase). An injection of running buffer as analyte was used as a double reference. All the sensorgrams were corrected by this double reference sensorgram.
(§3) After each injection of the analyte, the sensorchip was regenerated by injection of 20 mM NaOH, 75 mM NaCl solution.
(Surface plasmon resonance follows binding to a sensor surface in real time, without labels.)

Assay [2] addresses T2, Recombinant mouse FcγRI [CD64], Gln25-Pro297 with C-terminal 6-His tag (mouse, UniProt P26151 25-297).
T2 construct: range 25-297; Soluble form bought from R&D Systems; also called m-FcγRI
T2 sequence: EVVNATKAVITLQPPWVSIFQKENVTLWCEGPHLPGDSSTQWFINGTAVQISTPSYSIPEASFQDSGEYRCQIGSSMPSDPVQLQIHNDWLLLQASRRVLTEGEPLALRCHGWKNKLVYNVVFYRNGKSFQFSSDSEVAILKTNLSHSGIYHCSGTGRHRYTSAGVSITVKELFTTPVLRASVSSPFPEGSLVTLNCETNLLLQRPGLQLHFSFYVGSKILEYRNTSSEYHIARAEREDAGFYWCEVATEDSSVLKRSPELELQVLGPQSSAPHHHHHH
Put plainly: SPR (Biacore X), Mab on CM4 chip, m-FcγRI as analyte, heterogeneous ligand model, minor component; minor component (19%), lower end. On the procedure:
as §1, §2
According to this model, the c515H7 Mab Fc domain may be regarded as a mixture of two components.

Assay [3] addresses T2, Recombinant mouse FcγRI [CD64], …. Put plainly: SPR (Biacore X): m-FcγRI injected over c515H7 Mab immobilized on a CM4 sensorchip; heterogeneous ligand model, major component (81%). On the procedure: as §1, §2, §3
The target in assay [4] is T3, Recombinant human FcγRIIIA variant V [CD16a], Gln17-Gln208 with C-terminal 6-His tag (human, UniProt P08637 17-208).
T3 construct: range 17-208; 'variant V' is given without a position, so no substitution is written; also called h-FcγRIIIA
T3 sequence (P08637 other isoform, or with tags, fused parts or gaps mutant limits assumed, form in doubt): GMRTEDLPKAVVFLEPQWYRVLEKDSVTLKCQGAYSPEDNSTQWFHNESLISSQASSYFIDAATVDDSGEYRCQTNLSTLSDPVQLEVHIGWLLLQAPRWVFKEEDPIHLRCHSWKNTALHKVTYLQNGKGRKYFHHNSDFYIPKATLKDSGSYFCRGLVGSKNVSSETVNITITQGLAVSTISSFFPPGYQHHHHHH
The assay is described as follows: SPR (Biacore X): h-FcγRIIIA injected over c515H7 Mab immobilized on a CM4 sensorchip; heterogeneous ligand model, major component (81%). On the procedure:
as §1, §2, §3

Assay [5] concerns the target T2, Recombinant mouse FcγRI [CD64], …. The assay is described as follows: SPR (Biacore X), heterogeneous ligand model, m-FcγRI as analyte. On the procedure: (§4) 1964 RU of hz515H7VH1D76NVL2 Mab were immobilized using the amine coupling kit chemistry on the second flowcell (FC2) of a CM4 sensorchip. The first flowcell (FC1) activated by NHS and EDC mixture and des-activated by ethanolamine served as the reference surface to check and subtract the non specific interaction between the analyte (Fc gamma receptors) and the sensorchip matrix.
as §2
(§5) According to this model, the hz515H7VH1D76NVL2 Mab Fc domain may be regarded as a mixture of two components.

Assay [6] shares this target. Put plainly: SPR (Biacore X), Mab on CM4 chip, m-FcγRI as analyte, heterogeneous ligand model, major component. On the procedure:
as §4, §2, §5

Assay [7] has as its target T1, Recombinant mouse FcγRIII [CD16], …. Put plainly: SPR (Biacore X), Mab on CM4 chip, m-FcγRIII as analyte, Langmuïr model; lower of the two Langmuïr-fit values. On the procedure: as §4, §2
Using the Langmuïr model the constant of dissociation was around 17 and 18 nM.

Assay [8] addresses T2, Recombinant mouse FcγRI [CD64], …. The assay is described as follows: SPR (Biacore X): m-FcγRI injected over hz515H7VH1D76NVL2 Mab immobilized on a CM4 sensorchip; heterogeneous ligand model, major component (82%). On the procedure: as §4, §2
After each injection of the analyte, the sensorchip was regenerated by injection of either 20 mM NaOH solution after h-FcγRI and m-FcγRIII or 10 mM NaOH after h-FcγRIIIA and m-FcγRI.

For assay [9], the target named is T3, Recombinant human FcγRIIIA variant V …. The assay is described as follows: SPR (Biacore X): h-FcγRIIIA injected over hz515H7VH1D76NVL2 Mab immobilized on a CM4 sensorchip; heterogeneous ligand model, major component (79%). On the procedure:
as §4, §2
Sensorgrams obtained with h-FcγRIIIA [FIG. 16] were clearly not fitted by the Langmuïr model (Chi2/Rmax>20%). […] According to this model, the hz515H7VH1D76NVL2 Mab Fc domain may be regarded as a mixture of two components. […] According to the literature, the heterogeneity observed with h-FcγRIIIA was probably linked to the glycosylation heterogeneity on the Mab Fc domain.

Substitutions are numbered along the chain they refer to. Numbers in names are those of the source.

Results on two molecules are retold here after patent US20140120555A1 (PIERRE FABRE MEDICAMENT, published 2014).

What is called Kd is a measure of binding affinity in units of concentration. A word on the koff: it is the first-order rate constant of dissociation. As usually defined, the kon is the rate constant with which the complex forms.

B1: chimeric antibody c515H7 (antibody, human IgG1, kappa)
heavy: not shown
light: DIVMSQSPSSLAVSAGEKVTMSCKSSQSLFNSRTRKNYLAWYQQKPGQSPKLLIYWASARDSGVPARFTGSGSETYFTLTISRVQAEDLAVYYCMQSFNLRTFGGGTKLEIKRTVAAPSVFIFPPSDEQLKSGTASVVCLLNNFYPREAKVQWKVDNALQSGNSQESVTEQDSKDSTYSLSSTLTLSKADYEKHKVYACEVTHQGLSSPVTKSFNRGEC
notes: Human IgG1/kappa constant domains; also called c515H7 Mab; chimeric 515H7
As for B1, the Kd in assay [1] is 20.9 nM; in [2] it was 32 to 37 nM; in assay [3], 416 nM; in [4] it was 395 nM. For the same molecule, the koff came to 0.00442 s⁻¹ in [1], 0.138 s⁻¹ in assay [3] and 0.185 s⁻¹ in assay [4]. The values for the kon in assay [1], in [3] and in assay [4] were 211000 M⁻¹ s⁻¹, 332000 M⁻¹ s⁻¹ and 468000 M⁻¹ s⁻¹, respectively.

B2: humanized antibody Hz515H7 VH1 D76N VL2 (antibody, human IgG1, kappa)
heavy: not shown
light: B1 light with S5T, A15L, K18R, V19A, G105Q, L109V
notes: IgG1/kappa; also called hz515H7VL2; hz515H7-1
Turning to B2, in assay [5], the “fold association rate, major versus minor component” value was 5.7 fold. In [5], the “fold dissociation rate, major versus minor component” value was 4.8 fold. The Kd in assay [6] is 75 to 80 nM; in [7], around 17 nM; in [8] it was 76.8 nM; in [9] it was 325 nM. Moreover, the koff in assay [8] is 0.106 s⁻¹; in assay [9], 0.187 s⁻¹. In addition, the results for the kon in [8] and in [9] were 1.38e+06 M⁻¹ s⁻¹ and 575000 M⁻¹ s⁻¹, respectively.
